From patent US20230190642A1, “GROWTH FACTOR OTIC FORMULATIONS” (OTONOMY, INC., priority 2018, published 2023)

Key:
[1] = test system: Spiral ganglion neurons (SGNs); test: Survival of dissociated spiral ganglion neurons (Example C); format: cell-based, rat; details: 1 µM; compared to vehicle-only control, 0.01% DMSO; FIG. 6C
Method: Spiral ganglion neurons (SGNs) were harvested from P1-P3 rates, dissociated, and cultured in 96-well plates. The SGNs were treated with neurotrophins and/or antibodies at various concentrations. After about 24 hours, media was exchanged to serum-free media and the neurotrophins and/or antibodies were replenished. Cells were cultured for an additional 48-72 hours before being fixed using 4% paraformaldehyde (PFA) and stained using 4′,6-diamidino-2-phenylindole (DAPI). […] Surviving neurons were identified as cells with intact soma and at least one neurite.

tinnitus = details: administered by IV; cited from earlier work
[2] = test system: Méniére’s disease symptoms; details: infusion into the scala tympani; cited from earlier work
noise exposed adult rats = test: Noise-induced hearing loss / synaptopathy in rats (Example A1); format: in vivo, rat
Method: Poloxamer 407 gel at 16% was prepared using the cold method. In brief, a 16% w/w stock solution of poloxamer 407 was prepared by slowly adding it to a cold buffer solution (10 mM PBS, pH 7.4). Sterilization was achieved by filtration. Human recombinant BDNF was suspended with an appropriate amount of poloxamer 407 solution to reach a range of concentration of 0.05 to 5.0 mg/ml BDNF.
Male rats (Charles River) approximately 10-11 months of age served as subjects (N = 6 per group). Prior to any procedures, animals were anesthetized using a combination of xylazine (10 mg/kg) and ketamine (90 mg/kg) for up to one hour via the intraperitoneal route. If needed, an intraoperative booster was administered intraperitoneally representing one-tenth of the original dose. […]
Auditory Brainstem Response (ABR) assessment (wave 1) - During the procedure, additional anesthetic (xylazine and ketamine) was administered if needed to maintain the depth of anesthesia sufficient to insure immobilization and relaxation. ABRs were recorded in an electrically and acoustically shielded chamber, one ear at a time. […] Acoustic calibration was performed with TDT software (SigCal) and thresholds were expressed as dB SPL in conditions identical to that of threshold recordings in animals. […] Wave 1 was quantified by averaging the wave 1 amplitude from intensities ranging between 60-80 dB SPL. […]

[3] = test system: noise-induced cochlear synaptopathy; test: Noise-induced cochlear synaptopathy in rats (Example G); format: in vivo, rat
Method: Animals: Male Sprague-Dawley rats (5-6 months of age) were used for efficacy studies and females (2-3 months) were used for pharmacokinetic studies.
Formulations: Human recombinant BDNF was suspended in the thermoreversible polymer Poloxamer 407 (16%) to reach a range of BDNF concentrations.
Intratympanic (IT) injection: Formulations were administered under anesthesia as a single IT injection (20 µl through the tympanic membrane into the middle ear, targeting the round window membrane (RWM).
Noise-induced cochlear synaptopathy: Rats (n= 44 per treatment group) received a single acoustic trauma (105 dB SPL, 8-16 kHz, 1h) under anesthesia. 24 hours later (Day 1) animals received a single bilateral IT injection of the treatment regimens. Auditory function (ABR and ABR wave 1 amplitude) was monitored at day 1 and then every 7 days for 28 days. At termination (Day 28), cochleae were collected and assessed for evidence of cochlear synaptopathy (IHC synaptic puncta counts).
Immunohistochemistry: Dissected cochleae were immunostained with antibodies against presynaptic (CtBP2) and postsynaptic (GluR2) proteins and MyosinVIIa to label hair cells. Cochleae were then frequency mapped and high-magnification images were obtained with a Zeiss LSM-880 confocal microscope and imaged at an interval of 0.35 µm.
Intratympanic BDNF improves Auditory Brainstem Response (ABR) thresholds and wave I amplitudes in adult rats. The Auditory Brainstem Response (ABR) is an objective test that measures hearing sensitivity and can identify abnormalities in the peripheral auditory system and the auditory pathway up through the brainstem. Adult male rats were bilaterally exposed to noise followed by an intratympanic injection of 0.05 mg/ml BDNF in P407 24 hours after noise exposure. ABR recordings were obtained at days 1, 7, 14, and 28.

SGNs = test: SGN complexity, dissociated SGNs (Example D); format: cell-based, rat; details: compared to IgG-treated control, FIG. 7D
Excerpt: SGNs were immunostained, imaged, and batch analyzed with PerkinElmer Harmony 4.6 software. Changes in the complexities of SGNs upon treatment with various agents were examined. […] All of the images in a single well were stitched together and analyzed. SGN somas are shown in the upper right panel and SGN neurites are shown in the lower left panel. As shown in the lower right panel, each neurite tree is assigned to a single cell for analysis. Depending on the stitching, occasionally neurites will not meet the criteria due to gaps that exceed a user-defined threshold.

## OCCN(CCO)c1ccc(C(c2ccc(Cl)cc2)c2ccc(N(CCO)CCO)cc2)cc1 [LM22b10]
[1]
  Survival of SGNs: not improved

## CCN(CC)CC(=O)Nc1c(C)cccc1C [Lidocaine]
tinnitus
  sufferers in whom the noise associated with tinnitus is reduced or eliminated: 60-80%

## Cc1ccccc1C(=O)Nc1ccc(C(=O)N2CCCC(N(C)C)c3ccccc32)cc1 (stereo not drawn) [OPC-31260]
[2]
  Méniére’s disease symptoms: marked reduction

B1: brain-derived neurotrophic factor (protein, UniProt P23560 19-247, looked up)
Neurotrophic factor BDNF …: APMKEANIRGQGGLAYPGVRTHGTLESVNGPKAGSRGLTSLADTFEHVIEELLDEDQKVRPNEENNKDADLYTSRVMLSSQVPLEPPLLFLLEEYKNYLDAANMSMRVRRHSDPARRGELSVCDSISEWVTAADKKTAVDMSGGTVTVLEKVPVSKGQLKQYFYETKCNPMGYTKEGCRGIDKRHWNSQCRTTQSYVRALTMDSKKRIGWRFIRIDTSCVCTLTIKRGR
notes: Human recombinant BDNF; neurotrophin, Trk agonist on spiral ganglion neurons
Noise exposed adult rats; single intratympanic 0.005% BDNF in Poloxamer 407 24 hrs after noise, compared to vehicle, FIG. 3A
  hearing function (wave I amplitude): improved hearing function
Noise exposed adult rats; single intratympanic 0.005% BDNF in Poloxamer 407, Day 28, compared to vehicle, FIG. 3B
  number of ribbon synapses per inner hair cell: increased
[3]; adult male rats, BDNF or vehicle treatment following noise exposure, across many frequencies, FIG. 12C
  ABR wave I amplitudes: Significant improvements
[3]; adult male rats, intratympanic 0.05 mg/ml BDNF in P407 24 hours after noise exposure, ABR at days 1, 7, 14, 28, vs P407 vehicle, FIG. 12A
  recovery of initial ABR threshold shifts: more rapid recovery
[3]; adult male rats, intratympanic 0.05 mg/ml BDNF in P407 24 hours after noise exposure, vs P407 vehicle
  levels of hearing loss: reduced
[3]; adult rats after noise damage, each frequency region throughout the cochlea, FIG. 13C
  synaptic puncta (co-expression of CtBp2 and GluR2) per inner hair cell: increased
[3]; adult rats, intratympanic BDNF
  cochlear synaptopathy: repairs
SGNs
  total neurite length, total number of extremities, segments, and nodes per cell (differences): not statistically significant

B2: neurotrophin-3 (protein, UniProt P20783 139-257, looked up)
Neurotrophin-3: YAEHKSHRGEYSVCDSESLWVTDKSSAIDIRGHQVTVLGEIKTGNSPVKQYFYETRCKEARPVKNGCRGIDDKHWNSQCKTSQTYVRALTSENNKLVGWRWIRIDTSCVCALSRKIGRT
notes: neurotrophin; Trk agonist on spiral ganglion neurons
SGNs
  total neurite length, total number of extremities, segments, and nodes per cell (differences): not statistically significant
